Tested on: MS2 coat protein
Assay: apparent KD of MS2 coat protein; designed switch direction (-1 OFF switch, 1 ON switch): -1; higher = weaker reporter binding
In short: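 The buffer was Tris-HCl pH 7.5 with KCl, MgCl2, BSA, DTT, tRNA and Tween-20. In it, SNAP-549-labelled MS2 coat protein was titrated in doubling steps from 0.7 or 1.5 nM to 3 µM over chip-bound RNA switches transcribed by stalled E. coli RNA polymerase on Illumina chips. Apparent KD is the per-design median over clusters of curve fits to normalised fluorescence.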

[1] = Eterna round: R95, input ligand: FMN 200 uM
[2] = Eterna round: R95, input ligand: microRNA oligo, concentration not stated
[3] = Eterna round: R95, input ligand: none
[4] = input ligand: microRNA oligo, concentration not stated

Sequence | apparent KD of MS2 coat protein [1] [µM] | apparent KD of MS2 coat protein [2] [µM] | apparent KD of MS2 coat protein [3] [µM] | apparent KD of MS2 coat protein (input ligand: FMN 200 uM) [µM] | apparent KD of MS2 coat protein [4] [µM] | apparent KD of MS2 coat protein (input ligand: none) [µM]
AUAAAGAAUGUUAGGAUAUUGGUGAAUAGGCUGACUAAGAAGGAACAUGAGGAUCACCCAUGUAACAUGGAAAA [Tiinzaesqu] (puzzle: Brourd's mod of Exclusion 4) | 0.0688 | 0.0245 | 0.0336 |  |  | 
AUAAAUCAUGUAGGAUAUGCGUGGCAAAGCUAUGCAGAAGGACAUGAGGAUCACCCAUGUCUUUCCGUCUGAGUACAGACGGGA [Mat - Exclusion NG 1 - Mod of JL - D47] (Eterna round: R96, puzzle: Exclusion NG 1) |  |  |  | 0.172 | 0.0211 | 0.0249
AUAAAUCAUGUAGGAUAUGCGUGGCGAAGCUAUGCAGAAGGACAUGAGGAUCACCCAUGUGCUUGCGUCCGCGUACGGAUGCAA [Mat - Exclusion NG 1 - Mod of JL - D69] (Eterna round: R96, puzzle: Exclusion NG 1) |  |  |  | 0.0652 | 0.155 | 0.231
AUAACAUGCUGGUGAUCAUACAUGAGGAUCACCCAUGUAACAAGCUUUUUGCUCGUCUUAUAAUUUAAGAUCACCAG [Stov1/7-A2] (Eterna round: R97, puzzle: Sensor, turn-off variant 1) |  |  |  | 0.0174 |  | 0.0181
AUAAUGUCAGGAUAUACUAAUGAUGAAUGAUCAGACAUUAUGUAGAAGGGACAUGAGGAUCACCCAUGUAAUAU [EX4 #3] (Eterna round: R97, puzzle: Exclusion 4) |  |  |  | 0.0355 |  | 0.0291
AUAAUGUCAGGAUAUCAGUCGACUAGCUUCGGCUAGUCGACUGAGAAGGGACAUGAGGAUCACCCAUGUGUUUC [E4/14-A1] (Eterna round: R97, puzzle: Exclusion 4) |  |  |  | 2.39 |  | 0.505
AUAAUGUGAGGAUAUCAGUCGUACAGCGAUAGCUGUACGACUGAGAAGGCACAUGAGGAUCACCCAUGUGGUCA [E4/5-A4] (Eterna round: R97, puzzle: Exclusion 4) |  |  |  | 0.162 |  | 0.562
AUAAUUUAAGUGAGGAUAUACCUAUGGAAACAUAGGUAGAAGGCACAUGAGGAUCACCCAUGUUCCUAUACAUA [Fiskers BMX 4 - 3] (puzzle: Brourd's mod of Exclusion 4) | 0.0228 | 0.012 | 0.0131 |  |  | 
AUACACUUAGUGAGGAUAUCGUUUUCUUUACGGAUCGAGAAGGCACAUGAGGAUCACCCAUGUUUGACGUGAAU [JR_BMOE4_Sub095] (puzzle: Brourd's mod of Exclusion 4) |  | 0.0205 |  |  |  | 
AUAGAGUCAGGAUAUACAGGUGGAGGAGAGCAGCGUAAGGAGUAGAAGGGACAUGAGGAUCACCCAUGUAAGUG [JR_Exclu4_Sub060] (puzzle: Exclusion 4) | 0.0525 | 0.0551 | 0.0812 |  |  | 
AUAGAGUCAGGAUAUUGCGCAGUGGACAUGAGGAUCACCCAUGUGAACUUCGUACCGGGCCAAGAAGGGACGGAAA [Onedra] (puzzle: Exclusion 5) | 0.0966 | 0.0215 | 0.0311 |  |  | 
AUAGAUAUAGGAUAUGAGGUAUAGUACAUGAGGAUCACCCAUGUUGAUCGCAUGAACGAUUUAGAAGGAUACCUAA [Eternabot (L2) Solution 83] (Eterna round: R97, puzzle: Exclusion 5) |  |  |  | 0.643 |  | 1.31
AUAGGCUGUUUUGUUCGUCACAUGAGGAUCACCCAUGUCUCGAGACUGUGCUUACGUUGCGUGUAUAGUCCGGGUAU [Eternabot (L1) Solution 5] (Eterna round: R97, puzzle: Sensor, turn-off variant 1) |  |  |  | 0.0341 |  | 0.0363
AUAGGGUCAGGAUAUUGCGCAGUGGACAUGAGGAUCACCCAUGUGAACUUCGUACCGGGCCAAGAAGGGACAGAAA [Tiersoaso] (puzzle: Exclusion 5) | 0.0217 | 0.0113 | 0.0134 |  |  | 
AUAUAGUCAGGAUAUCGAAGUGAGUGUUGGUGGGUAAGGUACGAGAAGGGACAUGAGGAUCACCCAUGUAGGAA [JR_Exclusion4)Sub004] (puzzle: Exclusion 4) |  | 0.048 |  |  |  | 
AUCAGCUCGUGAGGAUAUACAUGCGUGCUUCGGCACGAAUUUAAGAUCACAUGAGGAUCACCCAUGUAGAAGGCACGAGCUGAU [ENG2/3-A3] (Eterna round: R96, puzzle: Exclusion NG 2) |  |  |  | 1.88 | 0.538 | 0.52
AUCAGCUCGUGAGGAUAUACAUGCGUGCUUCGGCACGAAUUUAAGAUCACAUGAGGAUCACCCAUGUAGAAGGUACGAGCUGAU [ENG2/3-C3] (Eterna round: R96, puzzle: Exclusion NG 2) |  |  |  | 0.498 | 0.287 | 0.275
AUCAGCUCGUGAGGAUAUAUAUUAACAUGAGGAUCACCCAUGUAAGAUCAGCUUCGGCAGUUAAUAUAGAAGGCACGAGCUGAU [ENG2/14-A2] (Eterna round: R96, puzzle: Exclusion NG 2) |  |  |  | 0.151 | 0.0988 | 0.114
AUCAUGUCAGGAUAUGUGACAUGGAUCUUCGGAUCAAGAUCACAGAAGGGACAUGAGGAUCACCCAUGUCGAUC [Ex4-3: 29] (puzzle: Exclusion 4) |  | 0.0669 |  |  |  | 
AUCCUACAUGAGGAUCACCCAUGUCAGGAUAUCCAAGAAAUGUGGCCUGAUUGGCCACGGAGAAGGGACGGGUG [jl-ex1-4.60 ViennaUCT mod] (Eterna round: R97, puzzle: Exclusion 1) |  |  |  | 0.0472 |  | 0.045
AUCGUAGCAGGAUAUCCGGAGAUUGACAUGAGGAUCACCCAUGUGGUCAUGCCAGCCAAUGGAGAAGGGUUUCGGU [Eternabot (L1) Solution 49] (Eterna round: R97, puzzle: Exclusion 5) |  |  |  | 0.618 |  | 0.637
AUCGUGCAGCUUUGCUGUACGAGUACAUGAGGAUCACCCAUGUAGGAUAUGGUACGCUUUGCGUGCUAGAAGGAUAUGCGUUUG [EX ENG3 1.45] (Eterna round: R96, puzzle: Exclusion NG 3) |  |  |  | 0.0467 | 0.04 | 0.0413
AUCGUGUGAGGAUAUCGAUUAUGGAAGUCUAGGUCCAUACGCGAGAAGGCACAUGAGGAUCACCCAUGUAAUGG [jl-ex4-4.32 ViennaUCT mod] (Eterna round: R97, puzzle: Exclusion 4) |  |  |  | 0.0298 |  | 0.486
AUCUGCACGCUGCGGUCCUACAUGAGGAUCACCCAUGUGGUCUGGUGGCGUGGGUCGCCGGACUUGGCUCGUCUUGA [salish99_S_TOV1_R5_043] (Eterna round: R97, puzzle: Sensor, turn-off variant 1) |  |  |  | 0.0181 |  | 0.0181
AUCUUGAUAGGAUAUACAUGAGGAUCACCCAUGUCCCACCCGUUACCUCUGGCCCUAUGUAGAAGGAUCGUCUA [Exy#20] (Eterna round: R97, puzzle: Exclusion 3) |  |  |  | 0.0505 |  | 0.0685
AUCUUUGCUCGUCAAAUUUACAUGAGGAUCACCCAUGUCUACCUGAGUGCGUCGGGACUGUACGUCAGCCGGUGGAA [Eternabot (L2) Solution 15] (Eterna round: R97, puzzle: Sensor, turn-off variant 1) |  |  |  | 0.0233 |  | 0.025
AUGAGCAGACGGAGAUCCAACAUGAGGAUCACCCAUGUCUCAAAAGCUUUUUGCUCAUCUUAUCGUACCUUGGUGCU [Mat - Sensor v3 - turn-off var 1 - JL Mod - D13] (puzzle: Sensor v3, turn-off variant 1) | 0.162 | 0.0154 | 0.238 |  |  | 
AUGAGGAUAAGAAAGUGAAGAUAGAGCGUACCUUAUGGAACAUGAGGAUCACCCAUGUAGCUUUUUGCUCGUCUUAU [JR_SV3TOV2_Sub031] (puzzle: Sensor v3, turn-off variant 2) | 0.0199 | 0.0495 | 0.0147 |  |  | 
AUGAGGUUAGGAUAUACAUGAGGAUCACCCAUGUUGAAAGGUUAGAUAGGCGAAGAUGGUAGAAGGAACAAAGA [JR_Exclu3_Sub054] (puzzle: Exclusion 3) | 0.0294 | 0.0382 | 0.0439 |  |  | 
AUGAGGUUAGGAUAUACAUGAGGAUCACCCAUGUUGAAAGGUUAGAUAGGCGAAGCUGGUAGAAGGAACGGAGC [JR_Exclu3_Sub055] (puzzle: Exclusion 3) | 0.0279 | 0.0298 | 0.0328 |  |  | 

Reference: the supplement of paper PMC9170038
